According to patent US20040146507A1 (Genentech, published 2004):
Changes are numbered by the printed parent chain. Read-outs that look alike come from different tables or passages of the source.

Assays:
human CD11a [1] = target: T1, human CD11a (human, UniProt P20701 26-1170); assay: FACScan, Jurkat cells
T1 construct: whole, on cells; On Jurkat T-cells or human peripheral blood mononuclear cells, as part of LFA-1; also called CD11a on Jurkat cells; alpha subunit of LFA-1
Procedure: (§1) Aliquots of 10⁶ Jurkat T-cells were incubated with serial dilutions of humanized and control antibodies in PBS-0.1% BSA-10 mM sodium azide for 45 min at 4° C. The cells were washed and then incubated in fluorescein-conjugated goat anti-human F(ab′)₂ (Organon Teknika, Westchester, Pa.) for 45 min at 4° C. Cells were washed and analysed on a FACScan (Becton Dickinson, Mountain View, Calif.). 8×10³ cells were acquired by list mode and gated by forward light scatter versus side light scatter, thereby excluding dead cells and debris.

rhesus CD11a [2] = target: T2, rhesus CD11a (rhesus, UniProt H9Z8N3 26-1169); assay: rhesus PBL binding
T2 construct: whole, on cells; On rhesus peripheral blood lymphocytes or leukocytes; also called rhCD11a
T2 sequence: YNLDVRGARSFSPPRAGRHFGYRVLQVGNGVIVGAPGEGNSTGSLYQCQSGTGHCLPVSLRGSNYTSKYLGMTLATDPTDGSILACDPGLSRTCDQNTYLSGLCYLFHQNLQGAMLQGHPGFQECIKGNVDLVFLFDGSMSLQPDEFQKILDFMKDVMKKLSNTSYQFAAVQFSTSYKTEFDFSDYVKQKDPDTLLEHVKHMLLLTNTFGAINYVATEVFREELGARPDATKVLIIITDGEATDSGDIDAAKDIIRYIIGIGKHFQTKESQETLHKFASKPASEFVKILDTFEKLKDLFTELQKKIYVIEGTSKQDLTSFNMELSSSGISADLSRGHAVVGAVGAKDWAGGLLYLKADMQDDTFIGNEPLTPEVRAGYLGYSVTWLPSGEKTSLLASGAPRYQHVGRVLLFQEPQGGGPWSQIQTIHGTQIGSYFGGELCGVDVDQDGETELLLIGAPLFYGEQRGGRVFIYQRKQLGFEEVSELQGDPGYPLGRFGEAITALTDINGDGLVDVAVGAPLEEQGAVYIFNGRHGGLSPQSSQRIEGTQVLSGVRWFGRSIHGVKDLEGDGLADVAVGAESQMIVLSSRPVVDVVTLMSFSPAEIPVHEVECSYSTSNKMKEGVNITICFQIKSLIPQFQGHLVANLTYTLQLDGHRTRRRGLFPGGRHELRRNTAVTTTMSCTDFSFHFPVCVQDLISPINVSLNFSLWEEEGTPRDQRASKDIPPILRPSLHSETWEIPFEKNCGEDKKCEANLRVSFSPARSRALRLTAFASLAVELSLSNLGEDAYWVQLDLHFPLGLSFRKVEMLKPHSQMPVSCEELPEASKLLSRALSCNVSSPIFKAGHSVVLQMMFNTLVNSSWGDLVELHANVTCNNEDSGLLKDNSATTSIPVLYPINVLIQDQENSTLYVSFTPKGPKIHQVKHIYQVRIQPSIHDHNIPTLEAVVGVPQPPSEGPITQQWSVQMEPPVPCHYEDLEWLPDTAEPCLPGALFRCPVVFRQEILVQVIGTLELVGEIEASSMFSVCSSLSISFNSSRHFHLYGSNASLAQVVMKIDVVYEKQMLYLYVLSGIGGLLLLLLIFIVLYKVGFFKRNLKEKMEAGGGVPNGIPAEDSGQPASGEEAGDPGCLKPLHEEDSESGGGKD

rhesus CD11a [3] = target: T2, rhesus CD11a; assay: rhesus PBL binding; remark: listed apart in the source
human CD11a [4] = target: T1, human CD11a; assay: FACScan, Jurkat cells; remark: listed apart in the source
Procedure: as §1
(§2) To determine which CDR residues were involved in binding to human CD11a an alanine-scan (Cunningham et al., Science 244:1081 (1989)) was performed on the CDR residues of HuIgG1. Each mutant was tested for binding to CD11a on Jurkat cells. In the light chain only CDR-L3 contributes to binding.
Target sequence in this assay (P20701 26-1170): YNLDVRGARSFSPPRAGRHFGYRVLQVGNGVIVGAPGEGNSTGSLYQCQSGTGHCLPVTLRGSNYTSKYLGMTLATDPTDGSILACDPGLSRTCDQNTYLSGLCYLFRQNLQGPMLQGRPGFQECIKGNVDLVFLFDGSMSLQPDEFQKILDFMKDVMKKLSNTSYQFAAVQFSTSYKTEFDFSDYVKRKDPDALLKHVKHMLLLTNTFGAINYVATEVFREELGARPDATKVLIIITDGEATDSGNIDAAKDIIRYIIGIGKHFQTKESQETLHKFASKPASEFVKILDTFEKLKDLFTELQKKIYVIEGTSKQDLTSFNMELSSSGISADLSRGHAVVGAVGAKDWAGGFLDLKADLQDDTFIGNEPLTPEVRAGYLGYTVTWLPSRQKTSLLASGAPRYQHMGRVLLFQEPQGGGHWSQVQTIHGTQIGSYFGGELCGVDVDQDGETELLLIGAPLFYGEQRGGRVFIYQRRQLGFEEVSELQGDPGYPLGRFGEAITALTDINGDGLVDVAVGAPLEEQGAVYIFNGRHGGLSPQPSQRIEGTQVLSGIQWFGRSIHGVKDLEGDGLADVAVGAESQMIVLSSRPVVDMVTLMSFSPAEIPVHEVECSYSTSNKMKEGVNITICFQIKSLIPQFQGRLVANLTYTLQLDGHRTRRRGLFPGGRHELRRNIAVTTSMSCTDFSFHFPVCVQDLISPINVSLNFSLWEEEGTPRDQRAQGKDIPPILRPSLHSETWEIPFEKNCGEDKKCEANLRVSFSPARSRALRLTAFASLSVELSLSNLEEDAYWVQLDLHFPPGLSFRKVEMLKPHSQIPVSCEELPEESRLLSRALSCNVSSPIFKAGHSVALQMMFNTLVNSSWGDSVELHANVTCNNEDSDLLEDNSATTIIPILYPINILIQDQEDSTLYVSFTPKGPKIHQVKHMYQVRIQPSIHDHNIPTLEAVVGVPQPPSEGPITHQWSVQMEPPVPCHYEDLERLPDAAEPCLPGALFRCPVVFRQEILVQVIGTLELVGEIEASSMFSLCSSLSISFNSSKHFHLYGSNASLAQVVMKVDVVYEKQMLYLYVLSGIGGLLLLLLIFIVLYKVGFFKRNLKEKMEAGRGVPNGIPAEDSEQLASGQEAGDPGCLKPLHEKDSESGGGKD

rhesus CD11a [5] = target: T2, rhesus CD11a; assay: rhesus PBL binding; remark: listed apart in the source
rhesus CD11a [6] = target: T2, rhesus CD11a; assay: rhesus PBL binding; end of range assigned by the printed EC50s
rhesus CD11a [7] = target: T2, rhesus CD11a; assay: rhesus PBL binding; remark: listed apart in the source
human CD11a [8] = target: T1, human CD11a; assay: FACScan, Jurkat cells; remark: listed apart in the source
Procedure: as §1, §2

human CD11a [9] = target: T1, human CD11a; assay: cell-based or functional assay

B1: HuIgG1 mutant AspH54Ala (antibody, V domains shown)
VH: EVQLVESGGGLVQPGGSLRLSCAASGYSFTGHWMNWVRQAPGKGLEWVGMIHPSASETRYNQKFKDRFTISVDKSKNTLYLQMNSLRAEDTAVYYCARGIYFYGTTYFDYWGQGTLVTVSS
VL: DIQMTQSPSSLSASVGDRVTITCRASKTISKYLAWYQQKPGKAPKLLIYSGSTLQSGVPSRFSGSGSGTDFTLTISSLQPEDFATYYCQQHNEYPLTFGQGTKVEIK
notes: HuIgG1 mutant, human IgG1; Kabat numbering
Human CD11a [1]
  Mutant EC50/HuIgG1 EC50: 147 ratio
Rhesus CD11a [2]
  Mutant EC50/HuIgG1 EC50: 0.3 ratio
Rhesus CD11a [3]
  fold improvement in binding over HuIgG1: 3 fold
Human CD11a [4]
  Var.EC50/HuIgG1 EC50: 147 ratio
Rhesus CD11a [5]
  Var.EC50/HuIgG1 EC50: 0.3 ratio

B2: HuIgG1 mutant H2C11 (antibody, V domains shown)
VH: B1 VH with H52A, S54A, A55S, E57N
VL: DIQMTQSPSSLSASVGDRVTITCRASKTISKYLAWYQQKPGKAPKLLIYSGSTLQSGVPSRFSGSGSGTDFTLTISSLQPEDFATYYCQQHNEYPLTFGQGTKVEIKR
Rhesus CD11a [3]
  EC50: 0.11 nM
Rhesus CD11a [6]
  fold improvement over EC50 of HuIgG1 for rhesus CD11a: 240 to 415 fold
  fold weaker than EC50 of HuIgG1 for human CD11a: 3 to 5 fold
Rhesus CD11a [7]
  Var.EC50/HuIgG1 EC50: 0.002 ratio
Human CD11a [8]
  Var.EC50/HuIgG1 EC50: 24.9 ratio

B3: humanized MHM24 F(ab)-8 (Fab, V domains shown)
VH: B1 VH with A55D
VL: B2 VL
notes: F(ab) from E. coli with human kappa CL and CH1
Human CD11a [1]
  EC50 F(ab)/EC50 F(ab)-2: 0.004 ratio

B4: HuIgG1 mutant AspH54Asn (antibody, V domains shown)
VH: B1 VH with A55N
VL: B1 VL
notes: as for B1
Human CD11a [1]
  Mutant EC50/HuIgG1 EC50: 26 ratio
Rhesus CD11a [2]
  Mutant EC50/HuIgG1 EC50: 0.1 ratio
Rhesus CD11a [3]
  fold improvement in binding over HuIgG1: 10 fold

B5: HuIgG1 mutant H2A1 (antibody, V domains shown)
VH: B1 VH with H52A, S54A, A55D
VL: B1 VL
notes: as for B1
Rhesus CD11a [3]
  fold improvement in binding over HuIgG1: 77 fold
Human CD11a [4]
  Var.EC50/HuIgG1 EC50: 10.8 ratio
Rhesus CD11a [7]
  Var.EC50/HuIgG1 EC50: 0.013 ratio
Rhesus CD11a [5]
  Var.EC50/HuIgG1 EC50: 0.013 ratio
Human CD11a [8]
  Var.EC50/HuIgG1 EC50: 10.8 ratio

B6: HuIgG1 mutant AspH54Glu (antibody, V domains shown)
VH: B1 VH with A55E
VL: B1 VL
notes: HuIgG1 mutant, human IgG1; Kabat numbering; also called AspH54 change to Glu
Human CD11a [1]
  Mutant EC50/HuIgG1 EC50: 16 ratio

B7: humanized MHM24 F(ab)-3 (Fab, V domains shown)
VH: B1 VH with Y27F, A55D, F68A, K74N
VL: B1 VL with T53S, Q55E
notes: F(ab) from E. coli; F(ab)-2 plus PheH67Ala
Human CD11a [1]
  EC50 F(ab)/EC50 F(ab)-2: 1.2 ratio

B8: humanized MHM24 F(ab)-5 (Fab, V domains shown)
VH: B1 VH with Y27F, A55D, K76S, N77S
VL: B1 VL with T53S, Q55E
notes: F(ab) from E. coli
Human CD11a [1]
  EC50 F(ab)/EC50 F(ab)-2: 0.043 ratio
  fold improvement in binding over F(ab)-2: 23 fold

B9: humanized MHM24 F(ab)-7 (Fab, V domains shown)
VH: B1 VH with A55D, K76S, N77S
VL: B1 VL
notes: F(ab) from E. coli
Human CD11a [1]
  EC50 F(ab)/EC50 F(ab)-2: 0.004 ratio
  fold improvement in binding over F(ab)-6: 3 fold

B10: HuIgG1 mutant H2 (antibody, V domains shown)
VH: B1 VH with H52A, S54A, A55D, S56A
VL: B1 VL
notes: as for B1
Rhesus CD11a [3]
  fold better binding than HuIgG1: 18 fold
Human CD11a [4]
  Var.EC50/HuIgG1 EC50: 14.1 ratio
Rhesus CD11a [5]
  Var.EC50/HuIgG1 EC50: 0.055 ratio

B11: HuIgG1 mutant GluH56Ala (antibody, V domains shown)
VH: B1 VH with A55D, E57A
VL: B1 VL
notes: as for B1
Rhesus CD11a [3]
  fold improvement in binding over HuIgG1: 3 fold
Human CD11a [4]
  Var.EC50/HuIgG1 EC50: 4 ratio
Rhesus CD11a [5]
  Var.EC50/HuIgG1 EC50: 0.3 ratio

B12: HuIgG1 mutant AspH54Ser (antibody, V domains shown)
VH: B1 VH with A55S
VL: B1 VL
notes: HuIgG1 mutant, human IgG1; Kabat numbering; also called AspH54 change to Ser
Rhesus CD11a [2]
  Mutant EC50/HuIgG1 EC50: 0.9 ratio

B13: HuIgG1 mutant AspH54Gln (antibody, V domains shown)
VH: B1 VH with A55Q
VL: B1 VL
notes: HuIgG1 mutant, human IgG1; Kabat numbering; also called AspH54 change to Gln
Human CD11a [1]
  Mutant EC50/HuIgG1 EC50: 20 ratio
Rhesus CD11a [2]
  Mutant EC50/HuIgG1 EC50: 4.4 ratio

B14: HuIgG1 mutant AspH54Lys (antibody, V domains shown)
VH: B1 VH with A55K
VL: B1 VL
notes: HuIgG1 mutant, human IgG1; Kabat numbering; also called AspH54 change to Lys
Rhesus CD11a [2]
  Mutant EC50/HuIgG1 EC50: 3.8 ratio

B15: humanized MHM24 F(ab)-4 (Fab, V domains shown)
VH: B1 VH with Y27F, A55D, V72R, K74N
VL: B1 VL with T53S, Q55E
notes: F(ab) from E. coli; F(ab)-2 plus ValH71Arg
Human CD11a [1]
  EC50 F(ab)/EC50 F(ab)-2: 2.9 ratio

B16: humanized MHM24 F(ab)-6 (Fab, V domains shown)
VH: B1 VH with Y27F, A55D, K76S, N77S
VL: B1 VL
notes: F(ab) from E. coli
Human CD11a [1]
  EC50 F(ab)/EC50 F(ab)-2: 0.012 ratio
  fold improvement in binding over F(ab)-5: 4 fold

B17: HuIgG1 mutant SerH55Gln (antibody, V domains shown)
VH: B1 VH with A55D, S56Q
VL: B1 VL
notes: as for B1
Human CD11a [4]
  Var.EC50/HuIgG1 EC50: 2.9 ratio
Rhesus CD11a [5]
  Var.EC50/HuIgG1 EC50: 6.7 ratio

B18: humanized MHM24 F(ab)-2 (Fab, V domains shown)
VH: B1 VH with Y27F, A55D, K74N
VL: B1 VL with T53S, Q55E
notes: F(ab) from E. coli
Human CD11a [1]
  EC50: 0.771 mg/L
  EC50 F(ab)/EC50 F(ab)-2: 1 ratio
  fold weaker EC50 than chimeric IgG1: 148 fold

B19: HuIgG1 mutant SerH55Ala (antibody, V domains shown)
VH: B1 VH with A55D, S56A
VL: B1 VL
notes: as for B1
Human CD11a [4]
  Var.EC50/HuIgG1 EC50: 1.3 ratio
Rhesus CD11a [5]
  Var.EC50/HuIgG1 EC50: 1.3 ratio

B20: HuIgG1 mutant ThrH30Ala (antibody, V domains shown)
VH: B1 VH with T30A, A55D
VL: B1 VL
notes: as for B1
Human CD11a [4]
  Var.EC50/HuIgG1 EC50: 1.7 ratio
Rhesus CD11a [5]
  Var.EC50/HuIgG1 EC50: 1.3 ratio

B21: chimeric MHM24 IgG1 (antibody, V domains shown)
VH: EVQLQQPGAELMRPGASVKLSCKASGYSFTGHWMNWVRQRPGQGLEWIGMIHPSDSETRLNQKFKDKATLTVDKSSSSAYMQLSSPTSEDSAVYYCARGIYFYGTTYFDYWGQGTTLTVSS
VL: DVQITQSPSYLAASPGETISINCRASKTISKYLAWYQEKPGKTNKLLIYSGSTLQSGIPSRFSGSGSGTDFTLTISSLEPEDFAMYYCQQHNEYPLTFGTGTKLELKR
notes: Murine VL and VH fused to human constant light and heavy (IgG1) chains; also called chIgG1; chimeric IgG1
Human CD11a [9]
  IC50, blocking of cell adhesion, Jurkat: HuK: 0.1 nM
Human CD11a [1]
  EC50: 0.0052 mg/L
  EC50 F(ab)/EC50 F(ab)-2: 0.006 ratio
